Results reported in the supplement of paper PMC12764529.
± gives the half width of the 95% confidence interval.

Assay: folding stability dG unfold from trypsin proteolysis; higher = more stable
Method in brief: (§1)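 Sequencing followed digestion of designed mini-proteins with trypsin and chymotrypsin, each at 11 concentrations in threefold dilutions together with a no-protease condition. The mini-proteins were under 80 residues, had no cysteine, sat in a PA-tagged cDNA display construct, and were kept only if AlphaFold2 dimer inter-PAE was above 15. From the counts, Bayesian fitting gave K50, and unfolding free energy was derived against a sequence-predicted unfolded-state K50 and a shared folded-state K50, per protease or combined.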

Q: Which “folding stability dG unfold” value does the source give for “SAGGSAMMLAKVKIELPNGEIVEIPIEFESLEELEEKIKEKARELFPDIPIEDIKILDIELYSLEESAGGSA [r15_220_TrMRF]” here?
A: The value was 4.06 ± 0.27 kcal/mol.

Q: Which “folding stability dG unfold” value does the source give for “SAGGYYIEFRNPNNGNTVTIPPELIEAIKSGDPDKLKKLPPWFRDALDNIDRVEIQPPPPVPPVPPGKSAGG [r13_233_TrROS]” here?
A: Its value is 0.68 ± 0.051 kcal/mol.

Q: Which “folding stability dG unfold” value does the source give for “SAGVTLKLPFVLPGGLGVDEIEVRSLPGGRVEARLRLKGDPRYYVVARFYVLPGGRLVITDVRVRREDESAG [r14_705_TrMRF]” here?
A: Its value is 3.75 ± 0.095 kcal/mol.

Q: For “SAGGDKKKVKIHIFPPPGMPMDNFANYIQDQLGWDRNNIKVEPMDSPQEAERRAEKNGKPEIVIFFRSAGGS [r8_245_TrROS]”, which “folding stability dG unfold” value is on record?
A: Its value is -0.216 ± 0.31 kcal/mol.

Q: With “SAGGSAPDDVEVEIKNIHYNPNWGYIMITIKVDGPVDSIEIELPNGWEISVMRDKDGTMTIMFPFPSAGGSA [r15_736_TrROS]” as the sequence, how does the “folding stability dG unfold” value read?
A: Its value is 2.43 ± 0.1 kcal/mol.

Q: For “SAGGMSVSITVTVTPTEVRVVENPTNGVNTAFTETTVTVTVNHPSSVSPEEKAALIAAVKAANPGAASAGGS [r8_306_JUSTAS]”, which “folding stability dG unfold” value is on record?
A: The value was 2.86 ± 0.57 kcal/mol.

Q: For “SEEIIKALEEAGYEVESIEYDEETKTVTITIYRKNKETGKIEKKTITIEVEPGMTEEELLALARELLEKESA [r9_184_TrROS_Hall]”, which “folding stability dG unfold” value is on record?
A: Its value is 4.77 ± 0.93 kcal/mol.

Q: With “SAGGSAGGSAGEVVRVYPTPDGTTVTITPHPTTYTVTTTSPDGVPTTTPVSPAEVAALGLSAGGSAGGSAGG [r17_127_JUSTAS]” as the sequence, how does the “folding stability dG unfold” value read?
A: The value was -0.0385 ± 0.09 kcal/mol.

Q: For “SAGGKEVKIEIEEKDGKLVIKITVKTEEELKEEIKKLLEEEFGLEVEEVKVEKNKNGEVTIYVVIKKKSAGG [r13_158_TrROS_Hall]”, which “folding stability dG unfold” value is on record?
A: The value was 1.45 ± 0.17 kcal/mol.

Q: For “SAGGSAGGSPKVTTSTSSSVLGNGRLESTVSNPDLGVTTLTLTDPESDVVTTFTETAGSTTPAASAGGSAGG [r6_757_JUSTAS]”, which “folding stability dG unfold” value is on record?
A: Its value is 0.132 ± 0.025 kcal/mol.

Q: Which “folding stability dG unfold” value does the source give for “SAGGWMTWEFELEDEDGKDIKIEVEQNPGNPWWRVKIEHKGGKPIPEIPIPADSPDDAIDQARDLLKSAGGS [r16_158_TrROS]” here?
A: Its value is 0.17 ± 0.21 kcal/mol.

Assay: folding stability dG unfold from chymotrypsin proteolysis; higher = more stable
Method in brief: as §1

Q: Which “folding stability dG unfold” value does the source give for “SAGGMEVVEIKYDPETGTVTVTVAIPESLSFDEVAPEVEALVKEKTGRPVEITVDPATGTVTATVPRSAGGS [r8_314_JUSTAS]” here?
A: The value was 1.39 ± 0.058 kcal/mol.

Q: With “SAGGALDAIKNIAEKFGFPEIEDIDIDPDNGWLSFRFRGPEPVYIKIPWKPDKNGNLPVNIEVYPMDDSAGG [r13_410_TrROS]” as the sequence, how does the “folding stability dG unfold” value read?
A: The value was 1.88 ± 0.11 kcal/mol.

Q: Which “folding stability dG unfold” value does the source give for “SMTYSYGVDVSEDPNSDKTTATITTTSSDGSSSLSPEEVAAELAAEAKAAGYTVDVELRPGSVTITVTAPSA [r9_510_JUSTAS]” here?
A: The value was 0.108 ± 0.086 kcal/mol.

Q: With “SMVTSETRETVTVTLPDGTVVTVTVTTHRPADGVPTATVTVTTTSADGTPTTSTHTFPAAEAPALIAAALSA [r9_189_JUSTAS]” as the sequence, how does the “folding stability dG unfold” value read?
A: Its value is 1.96 ± 0.044 kcal/mol.

Q: Which “folding stability dG unfold” value does the source give for “SAGWRQILDMARNMLENGHMFRIEWTGPGGKPQEFRIPLDDIETLLDNWPDPDDIRSVDIEVYPPGEPISAG [r5_957_TrROS]” here?
A: Its value is 2.45 ± 0.056 kcal/mol.

Q: Which “folding stability dG unfold” value does the source give for “SAGGSAGGSMKVEITKVEPETGPNGRPYYRVEVKVIGEDGSPYTFTFYFEKPSDIENAKISLDSAGGSAGGS [r20_130_TrMRF]” here?
A: The value was 3.91 ± 0.07 kcal/mol.

Q: With “SAGGMTLITIEHPDGEVIEFELPGATEEEAEAIAEEIAKRHDPGKVKVTFEKVPEKGVDPTKPVAVKSAGGS [r8_167_JUSTAS]” as the sequence, how does the “folding stability dG unfold” value read?
A: Its value is 1.39 ± 0.038 kcal/mol.

Q: Which “folding stability dG unfold” value does the source give for “SAGGSAGGSWKPIPYKIKMTDGDGEKHEFPVQIWVAPEDGWVFIDFPNGHPFWIPANNIKIEPSAGGSAGGS [r12_256_TrROS]” here?
A: The value was 1.88 ± 0.12 kcal/mol.

Q: With “SAGGFEEKVKAGEEVVDVVAPITLPDGTEAVVTRVEPVDDGLLVTLRPPWTGEEVELPLPASEIPKLPSAGG [r13_340_JUSTAS]” as the sequence, how does the “folding stability dG unfold” value read?
A: Its value is 1.21 ± 0.056 kcal/mol.

Q: With “SAMPIQIMVERDPDDGYIKVTIMFRSDSPEEAYELIETLFENLGVEVNIERYPEEGYFMIEVEIRLPPGSAG [r14_424_TrROS]” as the sequence, how does the “folding stability dG unfold” value read?
A: The value was 4.13 ± 0.33 kcal/mol.

Q: With “SAGGSPPNITYELTFPDGTVYTDPLPGKSLEELKEYVKSLNFTNVEVTVYEESSEVSTYKVTIPPNESAGGS [r16_700_JUSTAS]” as the sequence, how does the “folding stability dG unfold” value read?
A: The value was 0.57 ± 0.13 kcal/mol.

Q: For “SAGGSAKIEIPIMIPMPPGQEFDLKIRIPNLWKIKIERIYVSPDPGWIMFRIEIEPVAPPNDPEQMSAGGSA [r15_994_TrROS]”, which “folding stability dG unfold” value is on record?
A: Its value is 3.64 ± 0.071 kcal/mol.

Q: For “SAGSGPGETKLVEEVEIDPVGPIKDSNGNPRPIKVVTKKLVEVTILEDGTVEKKVLETVVETLPPDVPLSAG [r5_132_JUSTAS]”, which “folding stability dG unfold” value is on record?
A: Its value is -0.575 ± 0.1 kcal/mol.

Q: For “SAGGSAGMPPDEPVVKTTVIPTSTAVKDAAGNPLTPEELAAAVKAAYPDVEVSFGPGNTLTITLTRSAGGSA [r15_645_JUSTAS]”, which “folding stability dG unfold” value is on record?
A: The value was 1.11 ± 0.05 kcal/mol.

Q: Which “folding stability dG unfold” value does the source give for “SAGGSAGGKKPPKIKVIYIKADSPEALKKLKIKAKPGDTILIYVDGKLYRLTVIDGKIKIEELPSAGGSAGG [r6_550_TrROS_Hall]” here?
A: The value was 3.73 ± 0.065 kcal/mol.

Q: With “SAGGSAGGSSSATLAADETATLRFRVTLTFGSGVRSGTADLSGSVSATVEVDVEIEVRNLADDSAGGSAGGS [r12_668_TrMRF]” as the sequence, how does the “folding stability dG unfold” value read?
A: Its value is 4.62 ± 0.082 kcal/mol.

Q: Which “folding stability dG unfold” value does the source give for “SAGGSAGGPIVLKFPSPEDLEKAIEIATAHGYEIELNPESGTLVINATGPMLEEFKKIPGLEISSAGGSAGG [r6_724_TrMRF]” here?
A: Its value is 2.66 ± 0.041 kcal/mol.

Q: With “SAGGSAGGSAGGSYEVKEETEPKTGLKITTTTLPDGTIETTTINPATGEVTTTTSSPLESAGGSAGGSAGGS [r10_127_JUSTAS]” as the sequence, how does the “folding stability dG unfold” value read?
A: Its value is 1.89 ± 0.052 kcal/mol.

Q: Which “folding stability dG unfold” value does the source give for “SMPVGVEELAERLAEEIEKELSEKTGVPVKVEKITVEEDPATGTVTVTITLYLPDGKKIREESLTVPVLESA [r9_60_JUSTAS]” here?
A: Its value is 1.52 ± 0.037 kcal/mol.

Q: With “SAGGRYWKLTTPPDRPLRLVIEPVPLEDTPEEYGSRLYIPNTGKVYYFPLKYAQEILDLPWIERLEPVSAGG [r19_302_TrMRF]” as the sequence, how does the “folding stability dG unfold” value read?
A: Its value is 0.343 ± 0.21 kcal/mol.

Q: With “SSPLINILTVEVTAETPSGGSFSKTFTFPASKYTEEEIREKIKEEYPDLTDIKITPKVTKIPPGPKILLASA [r9_841_JUSTAS]” as the sequence, how does the “folding stability dG unfold” value read?
A: Its value is 1.98 ± 0.18 kcal/mol.
